According to the nanobody polyreactivity screen of Harvey et al. (2022):

Assay: yeast display, Sf9 membrane polyspecificity reagent, FACS + sequencing; frameworks hold sequencing errors
Outline: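 After 36–48 hours of galactose induction, yeast (Saccharomyces cerevisiae BJ5465) displaying a synthetic nanobody library were stained at 4 °C for 1 hour with 10% biotinylated, detergent-solubilized Sf9 membrane reagent. Streptavidin microbeads enriched the stained cells before FACS sorting into low and high (top ~1%) gates on anti-HA and streptavidin fluorescence. Each clone's polyreactivity label reflects its gate of origin.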

Row | Sequence | polyreactivity (PSR sort gate)
1 | QVQLVESGGGLVQAGGSLRLSCAASGRTFKYNAMGWYRQAPGKERELVATITRSGGSTYADSVKGRFTISRDNAKNTVYLQMNSLKPEDTAVYYCNLFHVTKDYKTYPQSRYDYWGQGTQVTVSS | high polyreactivity
2 | QDQLVESGGVLVQAGGSLRLSCAASGNIFAVYAMGWYRQAPGKERELVAAITTGTNTYADSVKGRFTISRDNAKNTVYLQMNSLKTEDTAVYYCAARSYRPLDYWGQGTQVTVSS | low polyreactivity
3 | QVQLVESGGGLVQAGGSLRLSCAASGRIFIYNAMGWYRQAPGKERELVAAISSGGDTYYADSVKGRFTISRDNAKNTVYLQMNSLKPEDSAVYYCAATFVVKGTRFGYWGQGTQVTVSS | high polyreactivity
4 | QVQLVESGGGLVLAGGSLRLSCAASGSTFVQNAMGWYRQAHGKERELVAAITFGGGSTYYADSVKGRFTISRDNAKNTVYLQMNSLKPEDTAVYYCAVEVGNPQLAYSYDYWGQGTQVTVSS | low polyreactivity
5 | QDQLVESGGGLDQAGGSLRLSCAASGRIFQKYAMACYRQAPGKERELVAAISSGDSTYADSVKGRFTISRDNAKNTVYLQMNSLKPEDTAVYYCAADSHYQEDFRIQYDYWGQGTQVTVSS | low polyreactivity
6 | QVQLVESGGGLVQAGGSLRLSCAASGSTFTAYGMGWYRQAPGKERELVAAITWRGGRTYYADSVKGRFTISRDNAKNTVYLQMNSLKPEDTAVYYCAKGAVWRYTTKYGYDYWGQGTQVTVSS | high polyreactivity
7 | QVQLVESGGGLVQAGGSLRLSCADSGITLYEYAMGWYRKAPGKERELVAAISTSGGRTRYADSVKGRFTISRDNAKNTVYLQMNSLKPEDTAVYYCAASGFVQISNPRRDYWGLGTQVTVSS | high polyreactivity
8 | QVQLVESGGGLVQAGGSLRLSCAASGRTFVQYVMGWYRQAPGKERELVARISSGGSTFYADSVKGRFTISRDNAKNTVYLQMNSLKPEDTAVYYCAAQWTRYRRRPMDYWGQGTQVTVSS | high polyreactivity
9 | QVQLVESGGGLVQAGGSLRLSCAASGSIFGSYTMGWYRQAPGKERELVAAITSSGGGTYYADSVKGRFTISRDNAKNTVYLQMNSLKPEDTAVYYCAAEYRDGYRFSYDYWGQGTQVTVSS | low polyreactivity
10 | QVQLEESGGGLVQAGGSLRLSCAASGFILSGNTMGWYRPAPGKERELVAGITYTGGSTYYADSVKGRFTISRDNAKNTVYLQMNSLKPEDTAVYYCAVDVAGGEGMDYWGHGTQVTVSS | low polyreactivity
11 | QVQLVESGGGLVQAGGSLRLSCAASGYTFYAYAMGWYRQAPGKERELVAAISGSGGNTRYADSVKGRFTISRDNAKNTVYLQMNSLKPEDTAVYYCAAVGWAYNSRYDYWGQGTQVTVSS | high polyreactivity
12 | QVQIVESGGGLVQARGSLLLSSAASGFTSNYYALGWYRHAPGKESELVAAITTGGSTHYADSVKGRFTFSRDNAQNTVYLQLNSLKQVDSAVYYCAAGTNRQQQRYFHNGGYYQYNYWGQGTQVTVSS | low polyreactivity
13 | QVQLVESGGGLVQAGGSLRLSCAASGRTFYSYTMGWYRQAPGKDRELVAAITRSGGRTYYADSVKGRFTISRDNAKNTVYLQMNSLKPDDTAVYYCAKGWVSYWRYKNEYWGQGTQVTVSS | high polyreactivity
14 | QVQLVESGGGLVQAGGSLRLSCAASGRIFYTYAMGWYRQAPGKERELVAAINRSGSSTYYADSVKGRFTISRDNAKNTVYLQMNSLKPEDTAVYYCNAQSYRYYGWVLTDVDYWGQGTQVTVSS | low polyreactivity
15 | QVQLVESGGGLVQAGGRLRLSCAATGRTFRTYVMGWYRQGPGKEREMFAAITWSAGRTYYADSVKGRFTISRDNAQNTVYLQMNSLKPEDTAVYYCATLPTYYLRSYGLDYWGQGTQVTVSS | high polyreactivity
16 | QVQLVESWGGLVQAGGSLRLSCAASGSIFYRYAMGWYRQAPGKEREFVAAIRWRGGSTYYADSVKGRFTISRDNAKNTVYLQMNSLKPEDTAVYYCAAPTVQRYNYWGQGTQVTVSS | high polyreactivity
17 | QVQLVESGGGLVQAGGSLRLSCAASGYTFGSNTMGWYRQAPGKERELVAVITWSGGSTYYADSVKGRFTISRDNAKNTVYLQMNSLKPEDTAVYYCAADATSPLTWFDYWGQGTQVTVSS | low polyreactivity
18 | QVQLVESGGGLVQAGGSLRLSCAASGSIFIYNVMGWYRPAPGKERELVATSRGSGGSTYYADSVKGRFTISRDTAKNTVYLHMNSLKPEDTAVYFCCRRDYPYQWGRAYNYWGQGTQVTVSS | high polyreactivity
19 | QVQLVESGGGLVQAGGSLRVSCAPSGGTFGYYTMGWYRQAPGTERELVAAISSGGGTDYADSVKGRFTISRDNAKNTVYLQMNSLKPEDTAVYYCNAKWLELHYVFLPSYTMDYWGHGTQVTVSS | low polyreactivity
20 | QVQLVESGGGLVQAGGSLRLSCAASGSTFRSYTMGWYRQAPGKERELVATIDWSAGNTRYADSVKGRFTISRDNAKNTVYLQMNSLKPEDTAVYYCNKDAGLWVSGTLYYWGQGTQVTVSS | low polyreactivity
21 | QVQLVESGGGLVQAGGSLRLSCAASGYTFRIYAMGWYRLAPGKERELVAGISSRGTSTYYADSVKGRFTISRDNAKNTVYLQMNSLKPEDTAVYYCAAGRYGRLYGYWGQGTQVTVSS | high polyreactivity
